Experimental data as given in the nanobody polyreactivity screen of Harvey et al. (2022).

Test: yeast display, Sf9 membrane polyspecificity reagent, FACS + sequencing; frameworks hold sequencing errors
Method in brief: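 After 36–48 hours of galactose induction, yeast (Saccharomyces cerevisiae BJ5465) displaying a synthetic nanobody library were stained at 4 °C for 1 hour with 10% biotinylated, detergent-solubilized Sf9 membrane reagent. Streptavidin microbeads enriched the stained cells before FACS sorting into low and high (top ~1%) gates on anti-HA and streptavidin fluorescence. Each clone's polyreactivity label reflects its gate of origin.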

Sequence	polyreactivity (PSR sort gate)
QVQLVESGGGLVQAGGSLRLSCAASGFIFSINAMGWYRQAPGKERELVADIDTGGSTNYADSVKGRFTISRDNAKNTVYLQMNSLKPEDTAVYYCAAQWYQYPSYISYFTSYDYWGQGTQVTVSS	low polyreactivity
QVQLVESGGGLVQAGGSLRLSCAASGFIFSIYTMGWYRQAPGKERELVAAISWSGGSTYYADSVKGRFTISRDNAKNTVYLQMNSLKPEDTAVYYCNRVQFSPVYRFREYDYWGQGSQVTVSS	high polyreactivity
QVQLVESGGGLVQAGGSLRLSCAASGFIFSKNVMGWYRQAPGKERELVARITRSGGTTYYADSVKGRFTISRDNAKNTVYLQMNSLKPEDTAVYYCAARRYGSTSISWYDYWGQGTQVTVSS	high polyreactivity
QVQLVESGGGLVQAGGSLRLSCAASGFIFSKYARGCYRQAPGKEGELVAAITFSGGSTYYADSVKGRFTISRDNAKNTVYLQMHSLKPEDTAVYYCNAEGSYPDVSPVLGYDYWGQGTQVTVSS	low polyreactivity
QVQLVESGGGLVQAGGSLRLSCAASGFIFSKYTMGWYRQAPGKETELVAAISSGGRTYYADSVKGRFTISRDNAKNTVYLQMNSLKPEDTAVYYCAVRGYIASQQAAGGGRNYYYWGQGTQVNVSS	high polyreactivity
QVQLVESGGGLVQAGGSLRLSCAASGFIFSKYVMGWSRQAPGKERELVAAITRSGSSTYYADSVKGRFTISRDNAKNTVYLQMNSLKPEDTAVYYCAADGGYYDDDYWGQGTQVTVSS	high polyreactivity
QVQLVESGGGLVQAGGSLRLSCAASGFIFSLYAMGWYRQAPGKERELVAGISESGGSTYYADSVKGRFTISRDNAKNTVYLQMNSLKPEDTAVYYCNADDTVYFIKAGDYWGQGTQVTVSS	high polyreactivity
QVQLVESGGGLVQAGGSLRLSCAASGFIFSNNAMGWYRQAPGKERELVAAISGRGGSTYYADSVKGRFTISRDNAKNTVYLQMNSLKPEDTAVYYCNALYTYSYSRFDYWGQGTQVTVSS	low polyreactivity
QVQLVESGGGLVQAGGSLRLSCAASGFIFSNNAMGWYRQAPGKERELVAVINGGGSTYYADSVKGRFTISRDNAKNTVYLQMNSLKPEDTAVYYCARKSWPKERRVDPGYDYWGQGTQVTVSS	low polyreactivity
QVQLVESGGGLVQAGGSLRLSCAASGFIFSPYAMGGYRHEPGKEREFVAAITSRVGSTYYADSVKGRFTISRDNAKNTVYLQMNSLKPEDTAVYYCAATTDGLVGRPRYDYWGQGTQVTVSS	low polyreactivity
QVQLVESGGGLVQAGGSLRLSCAASGFIFSQYARGWYRQAPGKERELVAAISYSGGSTYYADSVKGRFTISRDNAKNTVYLQMNSLKPEDTAVYYCAVSGRSYYRSDYWGQGTQVTVSS	high polyreactivity
QVQLVESGGGLVQAGGSLRLSCAASGFIFSRNAMGWYRQAPGKERELVASITRRGGSKYYADSVKGRFTISRDYAKNTVYLQMNSLKPEDTAVYYCAADGYVRPPEMDYWGQGTQVTVSS	high polyreactivity
QVQLVESGGGLVQAGGSLRLSCAASGFIFSRNAMGWYRQAPGKVRELGAAISRVGSTYYADSVKGRFTISRDNAKNTVYLQMYSLKREDTAVYYCARAWGNGGKSIFDYWGQGTQVTVSS	high polyreactivity
QVQLVESGGGLVQAGGSLRLSCAASGFIFSRYAMGWSRQAPGKERELVAAIRFSGSITYYADSVKGRFTISRDNAKNTVYLQMNSLKPEDTAVYYCAAYRRYYGWYEYWGQGTQVTVSS	high polyreactivity
QVQLVESGGGLVQAGGSLRLSCAASGFIFSRYAMGWYRQAPGKERELVAAISGRGTSTYYADSVKGRFTISRDNAKNTVYLQMNSLKPEDTAVYYCNTYSQPKWGTSDYDYWGQGTQVTVSS	high polyreactivity
QVQLVESGGGLVQAGGSLRLSCAASGFIFSRYVMGWYRQAPGKEMELVAVISYRGGSTYYADSVKGRFTISRDNAKNTVYLQMNSLKPEDTAVYYCNADTIPDGEDRYDYWCQGTQVTVSS	low polyreactivity

Sequence	polyreactivity (PSR sort gate)
QVQLVESGGGLVQAGGSLRLSCAASGFIFSSNAMGWYRPAPGKERELVARITSSDGSTYYADSVKGRFTISRDNAKNTVYLQMNSLKPEDTAVYYCAKGRDATHYEYYLYSMDYWGQGTQVTVSS	low polyreactivity
QVQLVESGGGLVQAGGSLRLSCAASGFIFSSYAMGWYRQAPGKERELVAAISRGGSTYYADSVKGRFTISRDNAKNTVYLQMNSLKPEDTAVYYCNARRYRHDGYWGQGTQVTVSS	high polyreactivity
QVQLVESGGGLVQAGGSLRLSCAASGFIFSSYAMGWYRQAPGKERELVAAISRSGGRTNYADSVKGRFTISRDNAKNTVYLQMNSLKPEDTAVYYCNADRKYWSLWGPAYDYWGHGTQVTVSS	high polyreactivity
QVQLVESGGGLVQAGGSLRLSCAASGFIFSTNAKGWYSQAPGKERELVATIRSGVSTYYADSVKGRFTISRDNAKNTVYLQMNSLKPEDTAVYYCNVDDTSRTTSGGRFGQVESDYWGQGTQVTVSS	low polyreactivity
QVQLVESGGGLVQAGGSLRLSCAASGFIFSTYAMGWYRQAPGKERELVAAITTSGSSTYYADSVKGRFTISRDNAKNTVYLQMNSLKPEDTAVYYCNAKYGYSAATDRGNYWGQGTQVTVSS	high polyreactivity
QVQLVESGGGLVQAGGSLRLSCAASGFIFSVNTMGWYRQAPGKERELVAAISGSGGSTYYADSVKGRFTISRDNAKITVYFQMNSLKPDDTAVYYCAARYTVTYDYWGQCTQVTVSS	high polyreactivity
QVQLVESGGGLVQAGGSLRLSCAASGFIFSVNTMGWYRQAPGKERELVAAISGSGGSTYYADSVKGRFTISRDNAKNTVYLQMNSLKPEDTAVYYCAAGVAWRFYSWGQGTQVTVSS	high polyreactivity
QVQLVESGGGLVQAGGSLRLSCAASGFIFSVYTMGWYRQAPGKERELVASITGSGGDTYYADSVKGRFTISRDNAKNTVYLQMNSLKPEDTAVYYCNVDAGFHDSYHAWNFRYDYWGQGTQVTVSS	low polyreactivity
QVQLVESGGGLVQAGGSLRLSCAASGFIFSWNDLGWYRQATGKERELVAAITSGTGSTYYADSVKGRFTISRDNAKNTVYLQMNSLKPEDTAVYYCAAGTNYGKLRIRFDYWGQGTQVTVSS	low polyreactivity
QVQLVESGGGLVQAGGSLRLSCAASGFIFSWYVMGWYRQAPGKERELVAAISQSGGDTYYADSVKGRFTFSRDNAKNTVYLQMNILKPEDTAVYYCAVGRVGRFYYWGQGTQVTVSS	high polyreactivity
QVQLVESGGGLVQAGGSLRLSCAASGFIFSYNAMGWYRQAPGKERELVAAISSIGSGTYYADSVKGRFTISRDNAKNTVYLQMNSLKPEDTAVYYCAKYLRPRIGSRYYYWGQGTQVTVSS	high polyreactivity
QVQLVESGGGLVQAGGSLRLSCAASGFIFSYNAMGWYRQAPGKERELVASISRRSGITYYADSVKGRFTISRDNAKNTVYLQMNSLKPEDTAVYYCAVTQNSKSTKIRPDQGDYWGLGTQVTVSS	high polyreactivity
QVQLVESGGGLVQAGGSLRLSCAASGFIFSYYAMGWYRQAPGKERELVAAISRNGGRTYYADSVKGRFTISRDNAKNTVYLQMNSLIPEDTAVYYCAATTYRTSSYIRYGSPKHDDYWGQGTHVTVSS	high polyreactivity
QVQLVESGGGLVQAGGSLRLSCAASGFIFSYYAMGWYRQAPGKERELVAAITWDGGSTYYADSVKGRFTISRDNAKNTVYLQMNSLKPEDTAVYYCNAYYYYRRPLEGGYWGQGTQVTVSS	low polyreactivity
QVQLVESGGGLVQAGGSLRLSCAASGFIFSYYAMGWYRQAPGKERELVAAITWSGGGTYYADSVKGRFTISRDNAKNTVYLQMNSLKPEDTAVYYCAAERVYPDGEYWGQGTQVTVSS	high polyreactivity
